In patent CN114736303A (YINGNUO LAKE MEDICINE HANGZHOU CO LTD, dated 2022):

B1: hu10B2 (人源化4-1BB抗体) (antibody, V domains shown)
VH: QVQLVESGGGVVQPGRSLRLSCAASGFTFSTFGLHWVRQAPGKGLEWVAYISSDSNTIYYADTMKGRFTISRDNSKNTLYLQMNSLRAEDTAVYYCTRGDPAYYGYGGRFVYALDFWGQGTLVTVSS
VL: DVVVTQTPLSLSVTPGQPASISCRSSQSLTNSYGHTYLSWYLQKPGQSPQLLIYGISIRFSGVPDRFSGSGSGTDFTLKISRVEAEDVGVYYCLQGTHQPWTFGGGTKVEIK
notes: The antibody was captured with anti-human IgG in SPR; also called 4-1BB(hu10B2); hu10B2 4-1BB抗体
B2: hu6F9B1A6/hu10B2-scFv双功能抗体 (人源化PD-L1/4-1BB双功能抗体) (bispecific antibody, human IgG4 S228P, F234A L235A)
heavy: QVQLVQSGAEVKKPGSSVKVSCKASGYTFIGYTVHWVRQAPGQGLEWIGWIYPGSGSIKYNEKFKDRATLTADKSTSTVYMELSSLRSEDTAVYYCARHGTGKFNYFDVWGQGTTVTVSSASTKGPSVFPLAPCSRSTSESTAALGCLVKDYFPEPVTVSWNSGALTSGVHTFPAVLQSSGLYSLSSVVTVPSSSLGTKTYTCNVDHKPSNTKVDKRVESKYGPPCPPCPAPEAAGGPSVFLFPPKPKDTLMISRTPEVTCVVVDVSQEDPEVQFNWYVDGVEVHNAKTKPREEQFNSTYRVVSVLTVLHQDWLNGKEYKCKVSNKGLPSSIEKTISKAKGQPREPQVYTLPPSQEEMTKNQVSLTCLVKGFYPSDIAVEWESNGQPENNYKTTPPVLDSDGSFFLYSRLTVDKSRWQEGNVFSCSVMHEALHNHYTQKSLSLSPGKGGGGSGGGGSDVVVTQTPLSLSVTPGQPASISCRSSQSLTNSYGHTYLSWYLQKPGQSPQLLIYGISIRFSGVPDRFSGSGSGTDFTLKISRVEAEDVGVYYCLQGTHQPWTFGGGTKVEIKGGGGSGGGGSGGGGSQVQLVESGGGVVQPGRSLRLSCAASGFTFSTFGLHWVRQAPGKGLEWVAYISSDSNTIYYADTMKGRFTISRDNSKNTLYLQMNSLRAEDTAVYYCTRGDPAYYGYGGRFVYALDFWGQGTLVTVSS
VL: DIQLTQSPSFLSASVGDRVTITCRASSTVNYMHWYQQKPGKAPKPWIYATFNLASGVPSRFSGSGSGTEYTLTISSLQPEDFATYYCQTWSSYPLTFGQGTKLEIK
notes: also called hu6F9B1A6/4-1BB; hu6F9B1A6-10B2-CC

Molecular target: 4-1BB-mFc (UniProt Q07011 24-186)
Assay: SPR (Biacore), multi-cycle kinetics, antibody captured by anti-human IgG on CM5 chip, 4-1BB antigen as analyte

| Binder | Kd [nM] | koff [s⁻¹] | kon [M⁻¹ s⁻¹] |
| --- | --- | --- | --- |
| B1 | 0.338 | 0.000204 | 602000 |
| B2 | 0.423 | 0.000122 | 289000 |
